Experimental data as given in publication doi:10.1101/800508 (bioRxiv, 2019).
Each block holds one binder with its values, some of them ahead of it.

B2: Sth1, ATPase subunit of RSC (enzyme)
chain: MLQEQSELMSTVMNNTPTTVAALAAVAAASETNGKLGSEEQPEITIPKPRSSAQLEQLLYRYRAIQNHPKENKLEIKAIEDTFRNISRDQDIYETKLDTLRKSIDKGFQYDEDLLNKHLVALQLLEKDTDVPDYFLDLPDTKNDNTTAIEVDYSEKKPIKISADFNAKAKSLGLESKFSNATKTALGDPDTEIRISARISNRINELERLPANLGTYSLDDCLEFITKDDLSSRMDTFKIKALVELKSLKLLTKQKSIRQKLINNVASQAHHNIPYLRDSPFTAAAQRSVQIRSKVIVPQTVRLAEELERQQLLEKRKKERNLHLQKINSIIDFIKERQSEQWSRQERCFQFGRLGASLHNQMEKDEQKRIERTAKQRLAALKSNDEEAYLKLLDQTKDTRITQLLRQTNSFLDSLSEAVRAQQNEAKILHGEEVQPITDEEREKTDYYEVAHRIKEKIDKQPSILVGGTLKEYQLRGLEWMVSLYNNHLNGILADEMGLGKTIQSISLITYLYEVKKDIGPFLVIVPLSTITNWTLEFEKWAPSLNTIIYKGTPNQRHSLQHQIRVGNFDVLLTTYEYIIKDKSLLSKHDWAHMIIDEGHRMKNAQSKLSFTISHYYRTRNRLILTGTPLQNNLPELWALLNFVLPKIFNSAKTFEDWFNTPFANTGTQEKLELTEEETLLIIRRLHKVLRPFLLRRLKKEVEKDLPDKVEKVIKCKLSGLQQQLYQQMLKHNALFVGAGTEGATKGGIKGLNNKIMQLRKICNHPFVFDEVEGVVNPSRGNSDLLFRVAGKFELLDRVLPKFKASGHRVLMFFQMTQVMDIMEDFLRMKDLKYMRLDGSTKTEERTEMLNAFNAPDSDYFCFLLSTRAGGLGLNLQTADTVIIFDTDWNPHQDLQAQDRAHRIGQKNEVRILRLITTDSVEEVILERAMQKLDIDGKVIQAGKFDNKSTAEEQEAFLRRLIESETNRDDDDKAELDDDELNDTLARSADEKILFDKIDKERMNQERADAKAQGLRVPPPRLIQLDELPKVFREDIEEHFKKEDSEPLGRIRQKKRVYYDDGLTEEQFLEAVEDDNMSLEDAIKKRREARERRRLRQNGTKENEIETLENTPEASETSLIENNSFTAAVDEETNADKETTASRSKRRSSRKKRTISIVTAEDKENTQEESTSQENGGAKVEEEVKSSSVEIINGSESKKKKPKLTVKIKLNKTTVLENNDGKRAEEKPESKSPAKKTAAKKTKTKSKSLGIFPTVEKLVEEMREQLDEVDSHPRTSIFEKLPSKRDYPDYFKVIEKPMAIDIILKNCKNGTYKTLEEVRQALQTMFENARFYNEEGSWVYVDADKLNEFTDEWFKEHSS
B7: Rsc8, subunit of RSC (natural protein)
chain: MSDTEKDKDVPMVDSHEATEEPPTTSTNTPSFPHLAQEQAKEESATLGAEVAHKKINYEQEAQKLEEKALRFLAKQTHPVIIPSFASWFDISKIHEIEKRSNPDFFNDSSRFKTPKAYKDTRNFIINTYRLSPYEYLTITAVRRNVAMDVASIVKIHAFLEKWGLINYQIDPRTKPSLIGPSFTGHFQVVLDTPQGLKPFLPENVIKQEVEGGDGAEPQVKKEFPVNLTIKKNVYDSAQDFNALQDESRNSRQIHKVYICHTCGNESINVRYHNLRARDTNLCSRCFQEGHFGANFQSSDFIRLENNGNSVKKNWSDQEMLLLLEGIEMYEDQWEKIADHVGGHKRVEDCIEKFLSLPIEDNYIREVVGSTLNGKGGDSRDGSVSGSKLMECVNDAVQTLLQGDDKLGKVSDKSREISEKYIEESQAIIQELVKLTMEKLESKFTKLCDLETQLEMEKLKYVKESEKMLNDRLSLSKQILDLNKSLEELNVSKKLVLISEQVDSGIQLVEKDQEGDDEDGNTATGHGVKRVGKEGEEVGEGDSIAKLQPQVYKPWSL

Tests used:
Assay in all cases: cryo-EM structure
[1] = target: B2
[2] = target: histone H4 (Xenopus laevis) (Xenopus laevis, UniProt P62799 2-103)
Rsc8, subunit of RSC = target: B7
cryo-EM structure = target: the molecule itself

binding result [1]: binds
B1: Arp7, actin-related protein, subunit of RSC (natural protein)
chain: MTLNRKCVVIHNGSHRTVAGFSNVELPQCIIPSSYIKRTDEGGEAEFIFGTYNMIDAAAEKRNGDEVYTLVDSQGLPYNWDALEMQWRYLYDTQLKVSPEELPLVITMPATNGKPDMAILERYYELAFDKLNVPVFQIVIEPLAIALSMGKSSAFVIDIGASGCNVTPIIDGIVVKNAVVRSKFGGDFLDFQVHERLAPLIKEENDMENMADEQKRSTDVWYEASTWIQQFKSTMLQVSEKDLFELERYYKEQADIYAKQQEQLKQMDQQLQYTALTGSPNNPLVQKKNFLFKPLNKTLTLDLKECYQFAEYLFKPQLISDKFSPEDGLGPLMAKSVKKAGASINSMKANTSTNPNGLGTSHINTNVGDNNSTASSSNISPEQVYSLLLTNVIITGSTSLIEGMEQRIIKELSIRFPQYKLTTFANQVMMDRKIQGWLGALTMANLPSWSLGKWYSKEDYETLKRDRKQSQATNATN

Binder: B2
binding result [2]: binds

binding result (Rsc8, subunit of RSC): binds
B3: Rsc6, subunit of RSC (natural protein)
chain: MVTQTNPVPVTYPTDAYIPTYLPDDKVSNLADLKKLIEMDSRLDLYLTRRRLDTSINLPTNTKTKDHPPNKEMLRIYVYNTTESSPRSDSGTPADSGKTTWTLRIEGKLLHESANGKHPFSEFLEGVAVDFKRLKPLGMGKKRKRDSSLSLPLNLQQPEYNDQDSTMGDNDNGEDEDSAEAESREEIVDALEWNYDENNVVEFDGIDIKRQGKDNLRCSITIQLRGVDGGKVQYSPNLATLIGMQTGSVNDAVYSIYKYILINNLFVTEQTEAQDGSNDAEDSSNENNNKNGAGDDDGVEGSTPKDKPELGEVKLDSLLQKVLDTNAAHLPLMNVVQTVNKLVSPLPPIILDYTIDLSKDTTYGATTLDVDVSHILHQPQPQPNLQKEEETDAEDTAKLREITKLALQLNSSAQKYQFFHELSLHPRETLTHYLWSSKQNELVLQGDQYFNEDAARTSDIYSNNNNDRSLMGNISLLYSQGRL

binding result [1]: binds
B4: Rtt102, subunit of RSC (natural protein)
chain: MDPQTLITKANKVSYYGNPTSKESWRYDWYQPSKVSSNVQQPQQQLGDMENNLEKYPFRYKTWLRNQEDEKNLQRESCEDILDLKEFDRRILKKSLMTSHTKGDTSKATGAPSANQGDEALSVDDIRGAVGNSEAIPGLSAGVNNDNTKESKDVKMN

binding result (Rsc8, subunit of RSC): binds
B5: Sfh1, subunit of RSC (natural protein)
chain: MSHQNQLIPQAYISNFHNRLTNEDDGIPIFTMAQQTRQHKRAKVVNYAEYDNDLFDEFNMNGSNFNNADTHYKDNAVSHENTPALTNGVTMDGSEYNVLENMNGADSIISNNKYDAGSNMVVESLSGLNSNNNASNGPSNKAQAQDIGNAVLPDLQDQHHNPFNILRYPKIRDTFINGKVVSPYRLNTDQETKANANSGEAIMIPITLDIEHMGHTIKDQFLWNYNDDSISPEEFASIYCKDLDMTSATLQTQIANIIKEQLKDLENIAATEIMSDLHVIINLTCNLQDRFFEDNFQWNLNDKSLTPERFATSIVQDLGLTREFIPLISQSLHETILKIKKDWVDGHLIQDHVPNDAAFGYLSGIRLDIDELGSNWCPRVEILTKEEIQKREIEKERNLRRLKRETDRLSRRGRRRLDDLETTMRM

binding result [1]: binds
B6: Arp9, actin-related protein, subunit of RSC (natural protein)
chain: MAPFRQDSILIIYPRSQTTLVQFGLNEETFTVPELEIPTQIYRTTRQDGSYTYHSTNKDNKAELIKPIQNGEIIDISAFTQFLRLIFVSILSDRANKNQDAFEAELSNIPLLLITHHSWSQSDLEIITQYVFESLEINNLIQLPASLAATYSMISLQNCCIIDVGTHHTDIIPIVDYAQLDHLVSSIPMGGQSINDSLKKLLPQWDDDQIESLKKSPIFEVLSDDAKKLSSFDFGNENEDEDEGTLNVAEIITSGRDTREVLEERERGQKVKNVKNSDLEFNTFWDEKGNEIKVGKQRFQGCNNLIKNISNRVGLTLDNIDDINKAKAVWENIIIVGGTTSISGFKEALLGQLLKDHLIIEPEEEKSKREEEAKSVLPAATKKKSKFMTNSTAFVPTIEYVQCPTVIKLAKYPDYFPEWKKSGYSEIIFLGAQIVSKQIFTHPKDTFYITREKYNMKGPAALWDVQF

Binder: B7
stoichiometry N (cryo-EM structure): 2
